Reference: a protein production outcome set (Wang et al. 2014)

Experiment: label from the status in PepcDB records

Sequence | protein production
SSEAKKGHVLFFPYPLQGHINPMIQLAKRLSKKGITSTLIIASKDHREPYTSDDYSITVHTIHDGFFPHEHPHAKFVDLDRFHNSTSRSLTDFISSAKLSDNPPKALIYDPFMPFALDIAKDLDLYVVAYFTQPWLASLVYYHINEGTYDVPVDRHENPTLASFPGFPLLSQDDLPSFACEKGSYPLLHEFVVRQFSNLLQADCILCNTFDQLEPKVVKWMNDQWPVKNIGPVVPSKFLDNRLPEDKDYELENSKTEPDESVLKWLGNRPAKSVVYVAFGTLVALSEKQMKEIAMAISQTGYHFLWSVRESERSKLPSGFIEEAEEKDSGLVAKWVPQLEVLAHESIGCFVSHCGWNSTLEALCLGVPMVGVPQWTDQPTNAKFIEDVWKIGVRVRTDGEGLSSKEEIARCIVEVMEGERGKEIRKNVEKLKVLAREAISEGGSSDKKIDEFVALLT | failed
MTTIHFHNVYVASRGTSVGLLEKQGPLGNRFDYTHEDNTCQQDSFEKAERYMLQEAVDATIRKSDYSIKDIEVMIGGDLINQLTSSHYFAKEFPISFLGMYAACASSSLVIGQAALWVEHQLAKTALAFTSSHVATAERQFRFPNEYGIQKKETTTCTVTGAGAVLLSRKKSKLKVASFTVGKVVDWQYNDANDMGVAMAPAAYDTLTTYFKDTNQSFQDFDLIVTGDLSKLGFAFLRDLLLQNGYCCEEKLQDCGLMIYDIVKQNVFCGGSGCACSMCVSMTKLLDLLEQQEARRIMVLATGALLSPIAIQQKESIPCIAHAIVYERS | failed
LDDLSEFVDQVPLLDHHCHFLIDGKVPNRDDRLAQVSTEADKDYPLADTKNRLAYHGFLALAKEFALDANNPLAAMNDPGYATYNHRIFGHFHFKELLIDTGFVPDDPILDLDQTAELVGIPVKAIYRLETHAEDFMLEHDNFAAWWQAFSNDVKQAKAHGFVGFKSIAAYRVGLHLEPVNVIEAAAGFDTWKHSGEKRLTSKPLIDYMLYHVAPFIIAQDMPLQFHVGYGDADTDMYLGNPLLMRDYLKAFTKKGLKVVLLHCYPYHREAGYLASVFPNLYFDISLLDNLGPSGASRVFNEAVELAPYTRILFASDASTYPEMYGLAARQFKQALVAHFNQLPFVDLAQKKAWINAICWQTSAKLYHQERELRV | not failed
MKQQKGVALITILVMVALATILAATIAKHQGNTAESTGYLMRQNQSLLYAKSAEAFFSELLIQDAENSPDVDHLAETWAQPMPPFPVEDGFVSGTLRDESGKFNLNNLVNADGTPNPAAQLWFEQLLVRVGLPAELSQAVIDWQDPDDQITGAMGAESNYYQGLSHPYLAANSKFQSVDELRLVRGFEGKKFDLIRPYISALPSVSTTKVNINTAPALLLASIDKNLDINAVQVALKEKMANLGYFKSVDELWALDAFKNIDQDSKTKISTLLDVKSSYFKAYIEVVLSERKRQFTSDLMRNNKKVYVYSRSLTPIFDIPQN | failed
GVQKVDKARKQITVAGGTRINEVGKTLKQHGLSLINQGDIDSQAVAGAFTTGTHGTGIKLGNMASSIAGMRIVKANGEILDIDGSDEELLHAAQVSVGTLGIISSMTLNVMDA | failed
MNKRKMIGAHSALALLALAVSQVHAADPTVQQGREDRAEKAAQKTLAKMTMEEKLAYIGGTGGWDVKPLTNYGVPQIHGADGGVGVRYTSEGNDQGVVYPSGPNLAATFNPRRAIDLGRALGYDTATGGYQFITGPGVNLYRMPYGGRAFEYLSGEDPFLGASLAPGVINGIQSRGVWANAKHYAANDQESNRFNLDQKMPERVLREMSLPAFESSSKNGNVAMMMCAFQKVNGDFACESEHLIAQILKKEWGYKGFVQSDYNAVVHGFEAARAGTDLDMMGYQMNSSVLKPHLDAGDLSAATIDDKVRRILKQIYLYKFDSKAPLTTHNMNSSTSNKVALNAAREGIVLLKNQGDLLPLDKQKVKKIAVVGTLAKYAPPTGFGSANVMASHYVSELSGLQQMAPNAKVEFIDGLSLDPSTSAWNTTDAAGNSVQGMKVEYFSNTNWSGDAAVTRTEQHVDLDWANDKNLPFESNTSTSDPYTTKGSTAGELNGDTSSTSIRYTGKITPTQSGEQVFKVRADGAVRLWVNGKKIIDNGDGKPLPGNSIPPTIPEFAKINLEAGQSYDVKLEYSRRAGYLSTMGGLVGVQLSSASLNAPQDLSGYDAVVVAVGNSNEYEGEGFDHSFDLPEFQNELIQNIAKVNPNTVVTMYGGTGLKMSDWIEQVPVALHAFYPGQNGGQALAEILFGKINPSGKLPISIERNIEDNPAYASFPKFDNQNTLAEMDYKDDLMLGYRGYEKKGIKPLYPFGYGLSYTTFGYSNIKVTPGVAVGNTPIKVSFDLTNTGKVGGSEVAQLYVGQQNPKVERPIKELKGYKKVFLKPGESKRVTIELNDRSLAYFDVKTNQWVVDADTFNLSLGGSSQDIRLNAKLVNSFRQELSTTTSNPLPRSALNSVLVEKPPVKTGGVFQQTVE | failed
MRETFADDLRSLHNKLIEMGRLTEVALQQAIEAFQTQNKNLAMAVIDGDGSIDKLEEEVNDFALWLIAKQQPVATDLRRIVAAIKIASDIERIADFAVNIAKACIRIGGQPFVMDIGPLVLMYRLATDMVSTAIAAYDREDASLAAQIADMDHRVDEQYGEMMKSLLEVEKTDKETLAQMNVLALVARYIERTADHATNIAEHLVYLVKGKHYDFND | not failed
MLGLFLIFWGLLLLLSLATFDLRDPSLNHVVSNPTEIRNGAGMFGSYLGGMLADAFGIAAFLWPVGFIGLGARYIIVSFDIAWWRWAGLLALSLCMVTAGAAWELSLGDVNAGGVLGDLLYRFSWKALSPRGSTLVWLFLCIIGLQLTFDISWTALFRRIVDKVRADLEAHPVSRPQLPELKLPRLGLPSGLHLPGRKGAEGNAPATLAVVDVTPDGSDSTNGAPSVVAREASTPRGMPVETDDFVLSEDRLQPPASELPFEVVLDADTDGVADLTADVESDISEGAGRPKAKMRRKSQLPPLDLLHSALNEDSRPDREVLEGKGLSLTNCLSDFGVQGELTRITPGPVVTMFEFRPAPGVKVSRIANLSDDLALALKAIAVRIQAPIPGTDTVGIEIPNETRETVCFKELLSSDTFKGASSLLTLAIGKDIAGRPTVADLSKMPHLLVAGATGAGKSVCLNSILLSILYKARPEDVKLLLVDPKRIELAVYADLPHLVHPVVTEMAHAKNALDWAVHEMDKRYEGMARLGVRNIAGYNQKLEDMGKERPADLADLEAMPYLVIIIDELADLMLTAAKEVETSIVRLAQLARAAGIHLILATQRPSVDVVTGLIKANFPCRISFQVTSKHDSRTILDTVGAEFLLGKGDMLFKPSGGKLQRLHGAFVSDDDVNGVVAFWKKQQPPSYKVDFAEWGNEGTLDGNGGSGGAGDLADDPVYAEAVEFVMGQGRASISLIQRRFRIGFNRAARYVEQMEQDGIIGPADGSKPRSVIRGKE | failed
MDMKRRIHLELRNRTPAAVRELVLDNCKSNDGKIEGLTAEFVNLEFLSLINVGLISVSNLPKLPKLKKLELSENRIFGGLDMLAEKLPNLTHLNLSGNKLKDISTLEPLKKLECLKSLDLFNCEVTNLNDYRESVFKLLPQLTYLDGYDREDQEAPDSDAEVDGVDEEEEDEEGEDEEDEDDEDGEEEEFDEEDDEDEDVEGDEDDDEVSEEEEEFGLDEEDEDEDEDEEEEEGGKGEKRKRETDDEGEDD | not failed
MSLPTFRIIGFIIGIFLITLAVAMIVPMATLVIYDRFEDLRSFLWASAITFIAGLALVVPGRPDNVQLRPRDMYMLTVSSWIVVCIFAALPFLLTQHISYTDSFFESMSGITATGSTVLSHLDSMSPGILIWRSMLHWLGGIGFIGMAVAILPLLRIGGMRLFQTESSDRSEKVMPRSHMVAKFIVLAYVGFTALGSLAFWAAGMSLFDAINHAMSAISTGGFSTSDLSLARWPQPAVHWVAIVVMILGSLPFTLYVATLRGNRKALIKDEQVQGLIGLLLITWLVMTVWYANTTDLPWTEALRHVALNVTSVVTTTGFALGDYSLWGNFSLMLFFYLGFIGGCSGSTAGGVKIFRFQVAYILLKTNLNQLIHPRAVMKQKYNGHRLDDEIVRSILTFSFFFTITICLIALMLSLLGLDWMTALTGAASTVSGVGPGLGEVIGPAGNFSTLPDAAKWILSGGMLLGRLEIITVLVLCVPAFWRH | failed
MFVFMLLLLLPFTISKAKDFPANPIEKAGYKLDFSDEFNGPTLDREKWTDYYLPHWCKDPESAKANYRFENGSLVEYITEDQKPWCPEHDGTVRSSAIMSFDKSWIHNFSGTTDNHERNEWRGYTTKYGYFEIRAKLSNTGGGGHQAWWMVGMQDDTNDWFNSKQTGEIDILETFFSKKDTWRIAAYGWNDPNFQTSWTISEDKVPSGDPTSEYHIYAMEWTPTALKFYYDNELFKVIYGSPDYEMGTILNIYTDAGSGAHNDVWPKEWAIDYMRVWKPVDGYKESESLNNYLIRNRQTGKFLYIEENNDKVSYGDITLKNEKNAKWSKEYRDGYTLLKNNETGEYLNIENQTGYIEHGKVPKTWWSAQWSEVPVDGYTRFVNRWKPNMSIHTESYEGVLQYGNVPNTYWTSQWQLIPVE | not failed
MLTQTLDSPSGAKRLRVMSRHEREPVSQSKTDFSQQTRWMLAVRDNRDRLAFAALFDHFAPRLKGFVIRSGTPAHQAEEIVQDVMLTIWRKAAMFDPHRAQVSAWIYQIARNRQIDIARKENRPMPEELKEEPGTEPDASQILGLEQEAGQLKQALANLKPEQREIIEKAYLGELTHQEISAQTGLPLGTIKSRIRLGLERLRYELKDLKQ | failed
IQVDYEDVKLDGYFFSPSWIKGPKPTILALNGGDEWSIENYFWLGPAFISCGYNFMVYDQPGTGLSMYEKGKGRRADSEAFHSRAIDFLLTRPEVDPNKIIVHGESFAAYDSLRFASFDHRIAAVISDGGTHAFDWEAMLKWMPPSLAGHGMRILGAKSLDDFAENPRFAYNLEGVLHQIECPLLVMHGAEEILVQPNPLTQALKNYEQAGSKNKTFFPIEDRRIGGLEHCQVDNINVLHEVVLNWL | not failed
SPINPYKDHMSVLKAYYAMNMEPNSDELLKISIAVGLPQEFVKEWFEQRKVYQYSNSR | not failed
MENQEVVLSIDAIQEPEQIKFNMSLKNQSERAIEFQFSTGQKFELVVYDSEHKERYRYSKEKMFTQAFQNLTLESGETYDFSDVWKEVPEPGTYEVKVTFKGRAENLKQVQAVQQFEVK | not failed
MSNVCIVYSSTHHGNTEKVLNKIKEKFPETVLIKAGDFNPDDFNRYEAIGFASGIFYFKFAKPVDKLFEQALVGSVQKLFFIYTAGAVNAGFEKTLRKKTEQSGKICMGIFGCKGFDTFGPLKLIGGLNKNSPNEKDFKNAIDFFEKNIINALEHHHHHH | not failed
MATSMTDIKGFNMISIEQEKELGNKFAVEIEKQQQPVNDPEVQRYVDKVGKRLLSGARAVEFDYVFKVVKDDSVNAFAIPGGRVYVHTGLLKAADNETELAGVLAHEINHAVARHGTRQMTQEYGYSLVLSLVLGDNPNMLAQLAGQLFGKAGMMSYSREYENQADFLGVETMYKAGYNPNGLTSFFQKLNAMDGGTQSNVARFFSTHPLTSERIQRVQAEIAKLPPQRYLTDETEFKKIKGRLKLEHHHHHH | not failed
MSAPFHSALLDALNQRVVIGDGAMGTMLQAADLTLDDFLGLEGCNEILNDTRPDVLKDIHRAYFEAGADAVETNTFGCNLPNLADYDISDRIRELAEKGTRLARDVADEMGPGRDGMGRFVLGSMGPGTKLPTLGHAPFAILRDAYAEAAMGMIDGGADAILVETCQDLLQVKAAILGSQRAMETLGSRLPIITHVTVETTGTMLLGSEIGAALTALEPLGIDMIGLNCATGPAEMSEHLRHLSKYSSLPVSVMPNAGLPQLGPNGAEYPLTAEELAEALSGFVTEFGLGLVGGCCGTTPEHIRQVAEAVRLVEKAERNPVHESGTSSLYTAVPFQQDASILMIGERTNTNGSKAF | failed
MEGSIDHHVRKAIQIGVNPLQAIQMASLNAAECFKLAKKGAIAPGFTADLLFIEDLQSLAITHVFKNGTCVAKNGKLIVPLEHHHHHH | failed
MSDYYLFAGRLFIAVMYVLSGANKLLFFSHGLDEVKSRNLPFPQLALSATIAVQLICGLAIMAGFQTTTASLLLALFTLATAVLFYDFWNQEGAQRTLMFTGFLEHISIIGGFALLMGAGPGKFVLLP | failed
